Measured values taken from PMC2241919.

Biological target: T1, SFVmac PR-RT WT (simian foamy virus from macaque (SFVmac), UniProt P23074 1-751)
T1 sequence: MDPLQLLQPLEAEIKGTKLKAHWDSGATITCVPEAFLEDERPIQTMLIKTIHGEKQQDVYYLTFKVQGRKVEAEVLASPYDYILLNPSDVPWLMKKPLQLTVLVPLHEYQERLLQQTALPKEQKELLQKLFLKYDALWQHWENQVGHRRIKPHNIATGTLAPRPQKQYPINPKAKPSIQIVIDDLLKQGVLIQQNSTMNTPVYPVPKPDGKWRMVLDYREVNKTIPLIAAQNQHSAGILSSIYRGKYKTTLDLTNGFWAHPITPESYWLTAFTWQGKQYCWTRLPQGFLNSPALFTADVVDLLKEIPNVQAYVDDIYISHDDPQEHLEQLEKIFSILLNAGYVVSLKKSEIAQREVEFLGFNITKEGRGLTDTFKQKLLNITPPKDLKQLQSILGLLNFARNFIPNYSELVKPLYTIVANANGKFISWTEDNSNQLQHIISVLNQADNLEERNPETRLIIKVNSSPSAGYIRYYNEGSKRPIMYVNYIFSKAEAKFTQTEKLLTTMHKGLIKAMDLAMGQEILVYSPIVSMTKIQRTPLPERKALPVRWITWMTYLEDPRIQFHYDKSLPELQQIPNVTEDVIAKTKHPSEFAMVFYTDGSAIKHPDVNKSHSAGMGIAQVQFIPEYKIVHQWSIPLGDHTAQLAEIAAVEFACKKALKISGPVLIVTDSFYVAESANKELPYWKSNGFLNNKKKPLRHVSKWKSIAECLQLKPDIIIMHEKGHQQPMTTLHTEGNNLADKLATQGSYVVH
Experiment: fluorescence anisotropy

B1: 24/40-mer DNA/DNA P/T (dsDNA)
DNA 1: ATCACCAGGAGAGGGGAAAGCGGA
DNA 2: CTAATTCCGCTTTCCCCTCTCCTGGTGATCCTTTCCATCC
B1 gave a Kd of 36.4 ± 2.4 nM.

B2: 24/40-mer DNA/RNA P/T (DNA:RNA)
DNA: ATCACCAGGAGAGGGGAAAGCGGA
RNA: CUAAUUCCGCUUUCCCCUCUCCUGGUGAUCCUUUCCAUCC
B2 showed a Kd of 32.4 ± 4.2 nM.
